Experimental data: PMC6068138, “Identification of a 57S translation complex containing closed-loop factors and the 60S ribosome subunit” (Scientific Reports, 2018)

T1: Flag-PAB1 (poly(A)-binding protein) (Saccharomyces cerevisiae, UniProt P04147 1-577)
T1 construct: bait of the one-step Flag pull down; also called PAB1-Flag; source: S. cerevisiae, expressed from plasmid YC776 (Flag-PAB1 URA3), in cell extract
T1 sequence (looked up): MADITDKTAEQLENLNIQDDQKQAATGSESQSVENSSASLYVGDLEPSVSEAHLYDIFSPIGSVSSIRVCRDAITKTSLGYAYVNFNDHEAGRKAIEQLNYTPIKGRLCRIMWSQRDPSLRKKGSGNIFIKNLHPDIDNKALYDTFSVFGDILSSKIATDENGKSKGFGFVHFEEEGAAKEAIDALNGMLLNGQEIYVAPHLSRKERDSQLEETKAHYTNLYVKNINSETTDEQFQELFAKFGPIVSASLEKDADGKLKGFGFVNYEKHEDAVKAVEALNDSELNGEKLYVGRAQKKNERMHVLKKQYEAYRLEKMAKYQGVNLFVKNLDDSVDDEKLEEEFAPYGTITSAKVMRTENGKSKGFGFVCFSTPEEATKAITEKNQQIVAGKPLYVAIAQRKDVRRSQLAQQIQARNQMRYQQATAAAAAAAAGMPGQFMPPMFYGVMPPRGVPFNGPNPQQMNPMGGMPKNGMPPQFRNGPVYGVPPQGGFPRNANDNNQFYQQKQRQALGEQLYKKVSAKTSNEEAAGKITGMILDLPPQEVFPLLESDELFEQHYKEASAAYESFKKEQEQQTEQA

T2: eIF4E-Flag (mRNA cap binding protein) (Saccharomyces cerevisiae, UniProt P07260 1-213)
T2 construct: bait of the one-step Flag pull down; also called eIF4-Flag; source: S. cerevisiae, expressed from plasmid YC801 (eIF4E-Flag URA3), in cell extract
T2 sequence (looked up): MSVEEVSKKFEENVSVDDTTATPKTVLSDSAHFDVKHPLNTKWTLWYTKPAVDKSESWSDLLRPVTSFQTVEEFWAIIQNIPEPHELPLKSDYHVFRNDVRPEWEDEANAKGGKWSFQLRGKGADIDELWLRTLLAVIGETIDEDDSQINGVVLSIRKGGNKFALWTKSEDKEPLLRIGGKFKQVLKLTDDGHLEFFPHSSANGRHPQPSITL


Columns and labels:
Details in all cases: partners not purified
[1] = biological target: T1, Flag-PAB1 (poly(A)-binding protein); experiment: co-IP + AUC; stoichiometric analysis: Flag-PAB1 purified material split and run at the same time by AU-FDS (GFP protein) and AU-A230 (total material); standards STM1-GFP and RPS4B-GFP; values relative to 100 mRNA bound by ribosomes; cells on glucose, 30 °C to 46 °C 1 min, or glucose depleted 10 min and added back 1 min
[2] = biological target: T1, Flag-PAB1 (poly(A)-binding protein); experiment: as above; remark: listed apart in the source
[3] = biological target: T2, eIF4E-Flag (mRNA cap binding protein); experiment: co-IP + AUC; stoichiometric analysis: eIF4E-Flag purified material split and run at the same time by AU-FDS (GFP protein) and AU-A230 (total material); standards STM1-GFP and RPS4B-GFP; values relative to 100 mRNA bound by ribosomes; cells on glucose
[4] = biological target: T1, Flag-PAB1 (poly(A)-binding protein); experiment: co-IP + AUC; one-step Flag pull down of Flag-PAB1 from yeast cell extracts (cycloheximide added before lysis); Flag eluate analysed by AU-FDS for the GFP tagged protein, 20 °C, 15,000 rpm; cells on glucose, glucose depleted 10 min, glucose added back 1 min, or 30 °C to 46 °C 1 min
[5] = biological target: T2, eIF4E-Flag (mRNA cap binding protein); experiment: co-IP + AUC; one-step Flag pull down of eIF4E-Flag from yeast cell extracts (cycloheximide added before lysis); Flag eluate analysed by AU-FDS for the GFP tagged protein, 20 °C, 15,000 rpm; cells on glucose or glucose depleted 10 min

Row | abundance in the Flag-PAB1 39S complex (Glc+) [1] | abundance in the Flag-PAB1 57S complex (Glc+) [1] | abundance in the Flag-PAB1 39S complex (30 °C to 46 °C 1 min) [2] | abundance in the Flag-PAB1 39S complex (Glu + − 10 min + 1 min) [2] | abundance in the Flag-PAB1 57S complex (30 °C to 46 °C 1 min) [2] | abundance in the Flag-PAB1 57S complex (Glu + − 10 min +1 min) [2] | abundance in the eIF4E-Flag 39S complex (Glc+) [3] | abundance in the eIF4E-Flag 57S complex (Glc+) [3] | fold change of abundance in the 77S complex, glucose depleted 10 min against glucose [4] | fold change of association with the 77S complex, 46 °C 1 min against 30 °C [4] | fold change of abundance in the 57S complex, glucose depleted against glucose [5] | Binder
1 | 13 ± 2.3 relative to 100 mRNA | 6.4 ± 0.91 relative to 100 mRNA | 7.9 ± 1.7 relative to 100 mRNA | 8.8 ± 1.6 relative to 100 mRNA | 3 ± 2.2 relative to 100 mRNA | 5.3 ± 1.1 relative to 100 mRNA | 88 ± 12 relative to 100 mRNA | 71 ± 8.6 relative to 100 mRNA |  |  |  | eIF4G1, GFP tagged (natural protein, Saccharomyces cerevisiae, UniProt P39935 1-952, looked up, eIF4G1, Saccharomyces cerevisiae; source: S. cerevisiae strain carrying the GFP fusion, in cell extract) MTDETAHPTQSASKQESAALKQTGDDQQESQQQRGYTNYNNGSNYTQKKPYNSNRPHQQRGGKFGPNRYNNRGNYNGGGSFRGGHMGANSSNVPWTGYYNNYPVYYQPQQMAAAGSAPANPIPVEEKSPVPTKIEITTKSGEHLDLKEQHKAKLQSQERSTVSPQPESKLKETSDSTSTSTPTPTPSTNDSKASSEENISEAEKTRRNFIEQVKLRKAALEKKRKEQLEGSSGNNNIPMKTTPENVEEKGSDKPEVTEKTKPAEEKSAEPEVKQETPAEEGEQGEKGQIKEESTPKVLTFAERLKLKKQQKEREEKTEGKENKEVPVQEETKSAIESAPVPPSEQVKEETEVAETEQSNIDESATTPAIPTKSDEAEAEVEAEAGDAGTKIGLEAEIETTTDETDDGTNTVSHILNVLKDATPIEDVFSFNYPEGIEGPDIKYKKEHVKYTYGPTFLLQFKDKLNVKADAEWVQSTASKIVIPPGMGRGNRSRDSGRFGNNSSRGHDFRNTSVRNMDDRANSRTSSKRRSKRMNDDRRSNRSYTSRRDRERGSYRNEEKREDDKPKEEVAPLVPSANRWVPKFKSKKTEKKLAPDGKTELLDKDEVERKMKSLLNKLTLEMFDAISSEILAIANISVWETNGETLKAVIEQIFLKACDEPHWSSMYAQLCGKVVKELNPDITDETNEGKTGPKLVLHYLVARCHAEFDKGWTDKLPTNEDGTPLEPEMMSEEYYAAASAKRRGLGLVRFIGFLYRLNLLTGKMMFECFRRLMKDLTDSPSEETLESVVELLNTVGEQFETDSFRTGQATLEGSQLLDSLFGILDNIIQTAKISSRIKFKLIDIKELRHDKNWNSDKKDNGPKTIQQIHEEEERQRQLKNNSRSNSRRTNNSSNRHSFRRDAPPASKDSFITTRTYSQRNSQRAPPPKEEPAAPTSTATNMFSALMGESDDEE
2 | 28 ± 9.5 relative to 100 mRNA | 14 ± 2.9 relative to 100 mRNA | 20 ± 2.5 relative to 100 mRNA | 14 ± 3.8 relative to 100 mRNA | 21 ± 9.4 relative to 100 mRNA | 5.1 ± 2.1 relative to 100 mRNA |  |  |  |  |  | eIF4E, GFP tagged (natural protein, Saccharomyces cerevisiae, UniProt P07260 1-213, looked up, source: S. cerevisiae strain carrying the GFP fusion, in cell extract) MSVEEVSKKFEENVSVDDTTATPKTVLSDSAHFDVKHPLNTKWTLWYTKPAVDKSESWSDLLRPVTSFQTVEEFWAIIQNIPEPHELPLKSDYHVFRNDVRPEWEDEANAKGGKWSFQLRGKGADIDELWLRTLLAVIGETIDEDDSQINGVVLSIRKGGNKFALWTKSEDKEPLLRIGGKFKQVLKLTDDGHLEFFPHSSANGRHPQPSITL
3 | 8.3 ± 3.4 relative to 100 mRNA | 3.5 ± 1.4 relative to 100 mRNA | 12 ± 8.1 relative to 100 mRNA | 5.3 ± 2.7 relative to 100 mRNA | 3.8 ± 2.3 relative to 100 mRNA | 3.2 ± 0.45 relative to 100 mRNA | 29 ± 5.4 relative to 100 mRNA | 32 ± 11 relative to 100 mRNA |  |  |  | eIF4G2-GFP (natural protein, Saccharomyces cerevisiae, UniProt P39936 1-914, looked up, eIF4G2, Saccharomyces cerevisiae; also called TIF4632-GFP; source: S. cerevisiae strain RP2384 (TIF4632-GFP::G418), in cell extract) MTDQRGPPPPHPQQANGYKKFPPHDNQYSGANNSQPNNHYNENLYSAREPHNNKQYQSKNGKYGTNKYNNRNNSQGNAQYYNNRFNNGYRLNNNDYNPAMLPGMQWPANYYAPQMYYIPQQMVPVASPPYTHQPLNTNPEPPSTPKTTKIEITTKTGERLNLKKFHEEKKASKGEEKNDGVEQKSKSGTPFEKEATPVLPANEAVKDTLTETSNEKSTSEAENTKRLFLEQVRLRKAAMERKKNGLISETEKKQETSNHDNTDTTKPNSVIESEPIKEAPKPTGEANEVVIDGKSGASVKTPQHVTGSVTKSVTFNEPENESSSQDVDELVKDDDTTEISDTTGGKTVNKSDDETINSVITTEENTVKETEPSTSDIEMPTVSQLLETLGKAQPISDIYEFAYPENVERPDIKYKKPSVKYTYGPTFLLQFKDKLKFRPDPAWVEAVSSKIVIPPHIARNKPKDSGRFGGDFRSPSMRGMDHTSSSRVSSKRRSKRMGDDRRSNRGYTSRKDREKAAEKAEEQAPKEEIAPLVPSANRWIPKSRVKKTEKKLAPDGKTELFDKEEVERKMKSLLNKLTLEMFDSISSEILDIANQSKWEDDGETLKIVIEQIFHKACDEPHWSSMYAQLCGKVVKDLDPNIKDKENEGKNGPKLVLHYLVARCHEEFEKGWADKLPAGEDGNPLEPEMMSDEYYIAAAAKRRGLGLVRFIGYLYCLNLLTGKMMFECFRRLMKDLNNDPSEETLESVIELLNTVGEQFEHDKFVTPQATLEGSVLLDNLFMLLQHIIDGGTISNRIKFKLIDVKELREIKHWNSAKKDAGPKTIQQIHQEEEQLRQKKNSQRSNSRFNNHNQSNSNRYSSNRRNMQNTQRDSFASTKTGSFRNNQRNARKVEEVSQAPRANMFDALMNNDGDSD
4 |  |  |  |  |  |  | 42 ± 9.1 relative to 100 mRNA | 26 ± 3.7 relative to 100 mRNA |  |  |  | PAB1, GFP tagged (natural protein, Saccharomyces cerevisiae, UniProt P04147 1-577, looked up, source: S. cerevisiae strain carrying the GFP fusion, in cell extract) MADITDKTAEQLENLNIQDDQKQAATGSESQSVENSSASLYVGDLEPSVSEAHLYDIFSPIGSVSSIRVCRDAITKTSLGYAYVNFNDHEAGRKAIEQLNYTPIKGRLCRIMWSQRDPSLRKKGSGNIFIKNLHPDIDNKALYDTFSVFGDILSSKIATDENGKSKGFGFVHFEEEGAAKEAIDALNGMLLNGQEIYVAPHLSRKERDSQLEETKAHYTNLYVKNINSETTDEQFQELFAKFGPIVSASLEKDADGKLKGFGFVNYEKHEDAVKAVEALNDSELNGEKLYVGRAQKKNERMHVLKKQYEAYRLEKMAKYQGVNLFVKNLDDSVDDEKLEEEFAPYGTITSAKVMRTENGKSKGFGFVCFSTPEEATKAITEKNQQIVAGKPLYVAIAQRKDVRRSQLAQQIQARNQMRYQQATAAAAAAAAGMPGQFMPPMFYGVMPPRGVPFNGPNPQQMNPMGGMPKNGMPPQFRNGPVYGVPPQGGFPRNANDNNQFYQQKQRQALGEQLYKKVSAKTSNEEAAGKITGMILDLPPQEVFPLLESDELFEQHYKEASAAYESFKKEQEQQTEQA
5 |  |  |  |  |  |  |  |  | 4 fold | 2 fold |  | translation termination factor eRF1 (natural protein, Saccharomyces cerevisiae, UniProt P12385 1-437, looked up, translation termination factor eRF1, Saccharomyces cerevisiae; source: S. cerevisiae, in cell extract) MDNEVEKNIEIWKVKKLVQSLEKARGNGTSMISLVIPPKGQIPLYQKMLTDEYGTASNIKSRVNRLSVLSAITSTQQKLKLYNTLPKNGLVLYCGDIITEDGKEKKVTFDIEPYKPINTSLYLCDNKFHTEVLSELLQADDKFGFIVMDGQGTLFGSVSGNTRTVLHKFTVDLPKKHGRGGQSALRFARLREEKRHNYVRKVAEVAVQNFITNDKVNVKGLILAGSADFKTDLAKSELFDPRLACKVISIVDVSYGGENGFNQAIELSAEALANVKYVQEKKLLEAYFDEISQDTGKFCYGIDDTLKALDLGAVEKLIVFENLETIRYTFKDAEDNEVIKFAEPEAKDKSFAIDKATGQEMDVVSEEPLIEWLAANYKNFGATLEFITDKSSEGAQFVTGFGGIGAMLRYKVNFEQLVDESEDEYYDEDEGSDYDFI
6 |  |  |  |  |  |  |  |  |  |  | 1.8 fold | RPL6B-GFP (natural protein, Saccharomyces cerevisiae, UniProt P05739 1-176, looked up, large ribosomal subunit protein RPL6B, Saccharomyces cerevisiae; part of the 60S ribosomal subunit in the extract; source: S. cerevisiae strain carrying the GFP fusion, in cell extract) MTAQQAPKWYPSEDVAAPKKTRKAVRPQKLRASLVPGTVLILLAGRFRGKRVVYLKHLEDNTLLVTGPFKVNGVPLRRVNARYVIATSTKVSVEGVNVEKFNVEYFAKEKLTKKEKKEANLFPEQQTKEIKTERVEDQKVVDKALLAEIKKTPLLKQYLSASFSLKNGDKPHLLKF
